Laboratory results reported in ChEMBL document CHEMBL1127417, “Multisubstrate inhibition of 4-hydroxybenzoate 3-monooxygenase” (J Med Chem, 1994).

Assays:
[1] = substrate: O=C(O)c1ccc(O)cc1OCc1ccccc1; assay: Michaelis-Menten constant against p-hydroxybenzoate hydroxylase (PHBH) from Pseudomonas fluorescence compared with NADPH; details: Pseudomonas fluorescens
[2] = substrate: O=C(O)c1ccc(O)cc1OCc1ccccc1; assay: Michaelis-Menten constant against p-hydroxybenzoate hydroxylase (PHBH) from Pseudomonas fluorescence compared with p-hydroxy benzoic acid; details: Pseudomonas fluorescens

B1: p-hydroxybenzoate hydroxylase (Pseudomonas fluorescens), P00438 (protein)
chain: MKTQVAIIGAGPSGLLLGQLLHKAGIDNVILERQTPDYVLGRIRAGVLEQGMVDLLREAGVDRRMARDGLVHEGVEIAFAGQRRRIDLKRLSGGKTVTVYGQTEVTRDLMEAREACGATTVYQAAEVRLHDLQGERPYVTFERDGERLRLDCDYIAGCDGFHGISRQSIPAERLKVFERVYPFGWLGLLADTPPVSHELIYANHPRGFALCSQRSATRSRYYVQVPLTEKVEDWSDERFWTELKARLPAEVAEKLVTGPSLEKSIAPLRSFVVEPMQHGRLFLAGDAAHIVPPTGAKGLNLAASDVSTLYRLLLKAYREGRGELLERYSAICLRRIWKAERFSWWMTSVLHRFPDTDAFSQRIQQTELEYYLGSEAGLATIAENYVGLPYEEIE
B1 gave a Km [1] of 57 µM and a Km [2] of 21 µM.
